Laboratory results as given in paper PMC2950840.

Target: SARS-CoV 3C-like protease (3CL^pro) (SARS-CoV (strain CUHK-Su10)) (UniProt P0C6X7)
Experiment: SEC; […] (20 mM Tris, 20 mM NaCl, pH 7.8); […]

Substance: SARS-CoV 3C-like protease (3CL^pro) (from UniProt P0C6X7 3241-3546) (enzyme)
- stoichiometry N: 2
